Laboratory results published in PMC7209288.

Tests used:
human C5 = assay: SPR; fit not_stated; antibody as IgG; antigen as monomer; on the surface: not_stated; avidity not_told; conditions: pH 7.4; second pH 6.0
[1] = target: Complement component C5 (human, wild type) (UniProt P01031); assay: SPR (Biacore); conditions: for t1/2 ratio pH7.4/pH6.0: pH 6.0-7.4, not stated (pH 7.4 and pH 6.0 compared); for KD / T1/2 (half-life of the complex): pH 7.4, 25 °C, not stated for this experiment (the 37 °C screen used 150 mM NaCl), not stated explicitly for the 25 °C runs, pH 7.4 (the 37 °C screen used HBS-EP: 10 mM Hepes)
[2] = target: Complement component C5 (human, wild type) (UniProt P01031); assay: SPR (Biacore T200, CM4 chip); conditions: pH 7.4, 37 °C, 150 mM NaCl, HBS-EP: 10 mM Hepes

Sequence of UniProt P01031 (P01031 whole entry): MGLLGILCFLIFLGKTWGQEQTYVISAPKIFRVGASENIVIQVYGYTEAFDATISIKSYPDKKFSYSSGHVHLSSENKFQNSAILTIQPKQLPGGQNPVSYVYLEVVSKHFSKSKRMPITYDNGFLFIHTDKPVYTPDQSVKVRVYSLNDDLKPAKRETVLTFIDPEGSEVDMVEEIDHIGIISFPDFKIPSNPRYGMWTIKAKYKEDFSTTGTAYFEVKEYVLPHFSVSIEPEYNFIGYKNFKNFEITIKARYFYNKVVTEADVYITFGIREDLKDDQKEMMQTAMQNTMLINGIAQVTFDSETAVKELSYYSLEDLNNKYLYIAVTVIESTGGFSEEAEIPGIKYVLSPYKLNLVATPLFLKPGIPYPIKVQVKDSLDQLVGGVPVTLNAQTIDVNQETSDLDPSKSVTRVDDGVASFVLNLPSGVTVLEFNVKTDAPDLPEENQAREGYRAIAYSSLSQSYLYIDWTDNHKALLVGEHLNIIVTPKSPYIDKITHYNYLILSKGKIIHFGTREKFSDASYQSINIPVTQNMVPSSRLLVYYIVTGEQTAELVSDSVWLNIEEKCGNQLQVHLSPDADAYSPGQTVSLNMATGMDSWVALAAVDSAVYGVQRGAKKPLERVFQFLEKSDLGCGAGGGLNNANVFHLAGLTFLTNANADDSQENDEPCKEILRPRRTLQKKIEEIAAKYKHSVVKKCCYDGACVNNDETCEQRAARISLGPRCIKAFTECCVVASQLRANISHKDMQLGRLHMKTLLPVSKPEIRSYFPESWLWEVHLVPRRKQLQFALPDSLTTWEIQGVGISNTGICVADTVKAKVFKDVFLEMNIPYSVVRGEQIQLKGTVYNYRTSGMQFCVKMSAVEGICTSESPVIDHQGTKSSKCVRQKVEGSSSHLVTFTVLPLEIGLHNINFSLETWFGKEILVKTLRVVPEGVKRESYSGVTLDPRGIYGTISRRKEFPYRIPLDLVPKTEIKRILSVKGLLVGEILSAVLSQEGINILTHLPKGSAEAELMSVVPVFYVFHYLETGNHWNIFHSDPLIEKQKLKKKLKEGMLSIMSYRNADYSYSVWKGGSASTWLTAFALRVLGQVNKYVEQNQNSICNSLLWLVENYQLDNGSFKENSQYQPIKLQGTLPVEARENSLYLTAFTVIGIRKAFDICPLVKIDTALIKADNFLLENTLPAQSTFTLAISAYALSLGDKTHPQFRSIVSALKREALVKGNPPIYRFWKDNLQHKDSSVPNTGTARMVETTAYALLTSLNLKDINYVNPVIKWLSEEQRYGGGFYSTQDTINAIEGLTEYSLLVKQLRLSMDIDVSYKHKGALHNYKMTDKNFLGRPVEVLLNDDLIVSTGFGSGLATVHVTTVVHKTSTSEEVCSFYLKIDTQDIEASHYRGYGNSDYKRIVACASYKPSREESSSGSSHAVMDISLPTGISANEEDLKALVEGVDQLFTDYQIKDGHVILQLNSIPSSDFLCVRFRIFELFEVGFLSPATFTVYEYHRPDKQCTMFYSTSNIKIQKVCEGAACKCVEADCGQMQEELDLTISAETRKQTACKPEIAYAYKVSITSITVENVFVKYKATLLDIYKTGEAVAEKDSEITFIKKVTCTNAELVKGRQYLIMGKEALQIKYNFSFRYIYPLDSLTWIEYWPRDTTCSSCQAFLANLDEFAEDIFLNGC

t1/2 ratio of binding hC5 at pH7.4/pH6.0 (human C5) | KD [1] [nM] | T1/2 (half-life of the complex) [1] [h] | KD [2] [nM] | T1/2 (half-life of the complex) [2] [h] | Substance | t1/2 ratio pH7.4/pH6.0 [1]
5.2 |  |  |  |  | In-house eculizumab | 
 | 0.301 | 1.72 |  |  | In-house eculizumab, anti-human C5 monoclonal antibody | t1/2 ratio of binding hC5 at pH7.4/pH6.0 = 5.2
3.8 |  |  |  |  | REGN3918 | 
 | 0.189 | 1.03 | 0.262 | 0.833 | REGN3918 (pozelimab), anti-human C5 monoclonal antibody S228P (EU numbering, IgG4 hinge) | t1/2 ratio of binding hC5 at pH7.4/pH6.0 = 3.8
